These sequences were tested on Escherichia coli TOP10 (assay: shrunken log2 fold change of peptide-encoding DNA abundance (4.5 h post-induction vs induction); higher = less antimicrobial activity (less host growth inhibition)). Settings: time post-induction: 4.5 h; library: site-saturation at positions 5, 18, 19, 20.
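Further: peptides expressed intracellularly from a pBAD plasmid library in pooled LB shake-flask culture, induced with 0.3% L-arabinose, DNA abundance read by NGS, three biological replicates, DESeq2 with apeglm shrinkage.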

| Sequence | shrunken log2 fold change |
| --- | --- |
| RRIRKRPPRLPRPRPRPTVYPRP | -0.0794 |
| RRIRYRPPRLPRPRPRPTGHPRP | 0.0155 |
| RRIRDRPPRLPRPRPRPAIPPRP | -0.538 |
| RRIRQRPPRLPRPRPRPAQNPRP | 0.231 |
| RRIRHRPPRLPRPRPRPQHGPRP | 0.00949 |
| RRIRYRPPRLPRPRPRPPKMPRP | 0.28 |
| RRIRARPPRLPRPRPRPQGLPRP | 0.208 |
| RRIRHRPPRLPRPRPRPWHIPRP | -0.864 |
| RRIRFRPPRLPRPRPRPFGCPRP | -0.0616 |
| RRIRQRPPRLPRPRPRPLITPRP | -0.281 |
| RRIRQRPPRLPRPRPRPLAAPRP | 0.395 |
| RRIRFRPPRLPRPRPRPGIKPRP | -0.137 |
| RRIRGRPPRLPRPRPRPHMWPRP | -0.0527 |
| RRIRHRPPRLPRPRPRPHGDPRP | -0.01 |
| RRIRFRPPRLPRPRPRPYTNPRP | -1.17 |
| RRIRVRPPRLPRPRPRPTNMPRP | -0.472 |
| RRIRLRPPRLPRPRPRPNDWPRP | -0.261 |
| RRIRVRPPRLPRPRPRPYVFPRP | -0.136 |
| RRIRERPPRLPRPRPRPQCVPRP | -0.0437 |
| RRIRYRPPRLPRPRPRPNATPRP | -0.222 |
| RRIRRRPPRLPRPRPRPHLGPRP | -0.044 |
| RRIRCRPPRLPRPRPRPWFLPRP | -0.479 |
| RRIRIRPPRLPRPRPRPRAFPRP | -0.0671 |
| RRIRLRPPRLPRPRPRPSAMPRP | -0.347 |
| RRIRLRPPRLPRPRPRPYKYPRP | 0.0639 |

| Sequence | shrunken log2 fold change |
| --- | --- |
| RRIRLRPPRLPRPRPRPYEHPRP | -0.583 |
| RRIRRRPPRLPRPRPRPIWGPRP | 0.163 |
| RRIRRRPPRLPRPRPRPVSKPRP | 0.24 |
| RRIRRRPPRLPRPRPRPESQPRP | 0.303 |
| RRIRMRPPRLPRPRPRPVDLPRP | 0.405 |
| RRIRSRPPRLPRPRPRPMIKPRP | -0.464 |
| RRIRNRPPRLPRPRPRPWRRPRP | -0.0717 |
| RRIRERPPRLPRPRPRPVPLPRP | -0.244 |
| RRIRQRPPRLPRPRPRPFMLPRP | -0.278 |
| RRIRNRPPRLPRPRPRPNFMPRP | -0.269 |
| RRIRMRPPRLPRPRPRPIRLPRP | 0.0373 |
| RRIRTRPPRLPRPRPRPTHVPRP | 0.122 |
| RRIRQRPPRLPRPRPRPHQPPRP | 0.00524 |
| RRIRRRPPRLPRPRPRPAQTPRP | 0.348 |
| RRIRKRPPRLPRPRPRPEYSPRP | 0.0499 |
| RRIRERPPRLPRPRPRPQIFPRP | -0.0392 |
| RRIRNRPPRLPRPRPRPFCEPRP | -0.28 |
| RRIRLRPPRLPRPRPRPSDEPRP | -0.255 |
| RRIRGRPPRLPRPRPRPADLPRP | 0.604 |
| RRIRCRPPRLPRPRPRPDMAPRP | -0.145 |
| RRIRDRPPRLPRPRPRPYCFPRP | -0.744 |
| RRIRDRPPRLPRPRPRPQGPPRP | 0.0365 |
| RRIRVRPPRLPRPRPRPIHEPRP | 0.0255 |
| RRIRERPPRLPRPRPRPNIDPRP | -0.0761 |
| RRIRQRPPRLPRPRPRPVGSPRP | 0.317 |

| Sequence | shrunken log2 fold change |
| --- | --- |
| RRIRMRPPRLPRPRPRPHMVPRP | -0.0116 |
| RRIRSRPPRLPRPRPRPGFQPRP | -0.114 |
| RRIRWRPPRLPRPRPRPHIMPRP | -0.457 |
| RRIRNRPPRLPRPRPRPRNYPRP | -0.123 |
| RRIRNRPPRLPRPRPRPIPQPRP | -0.35 |
| RRIRVRPPRLPRPRPRPRDLPRP | 0.0448 |
| RRIRNRPPRLPRPRPRPKHQPRP | 0.124 |
| RRIRYRPPRLPRPRPRPTCCPRP | -0.194 |
| RRIRKRPPRLPRPRPRPKRQPRP | 0.0282 |
| RRIRPRPPRLPRPRPRPQTAPRP | 0.111 |
| RRIRCRPPRLPRPRPRPFLMPRP | -0.422 |
| RRIRARPPRLPRPRPRPEYKPRP | -0.0123 |
| RRIRPRPPRLPRPRPRPFGMPRP | -0.749 |
| RRIRNRPPRLPRPRPRPWCDPRP | -0.365 |
| RRIRGRPPRLPRPRPRPPQEPRP | 0.352 |
| RRIRDRPPRLPRPRPRPTAQPRP | 0.0542 |
| RRIRQRPPRLPRPRPRPMGGPRP | 0.0922 |
| RRIRQRPPRLPRPRPRPCWMPRP | -0.408 |
| RRIRKRPPRLPRPRPRPRYKPRP | 0.15 |
| RRIRSRPPRLPRPRPRPHHAPRP | -0.41 |
| RRIRSRPPRLPRPRPRPVRFPRP | 0.488 |
| RRIRYRPPRLPRPRPRPCILPRP | 0.00867 |
| RRIRPRPPRLPRPRPRPKHAPRP | 0.824 |
| RRIRFRPPRLPRPRPRPEHDPRP | -0.446 |
| RRIRVRPPRLPRPRPRPNPQPRP | 0.000771 |

| Sequence | shrunken log2 fold change |
| --- | --- |
| RRIRERPPRLPRPRPRPIKAPRP | -0.00435 |
| RRIRERPPRLPRPRPRPAKTPRP | -0.244 |
| RRIRCRPPRLPRPRPRPFNGPRP | -0.148 |
| RRIRHRPPRLPRPRPRPLAVPRP | 0.0391 |
| RRIRTRPPRLPRPRPRPIRVPRP | -0.519 |
| RRIRSRPPRLPRPRPRPDNHPRP | -0.307 |
| RRIRDRPPRLPRPRPRPQYMPRP | 0.0516 |
| RRIRERPPRLPRPRPRPDLMPRP | 0.0435 |
| RRIRIRPPRLPRPRPRPEPQPRP | -0.0904 |
| RRIRSRPPRLPRPRPRPVDHPRP | -0.00391 |
| RRIRTRPPRLPRPRPRPFQQPRP | 0.0654 |
| RRIRCRPPRLPRPRPRPHFCPRP | -0.649 |
| RRIRHRPPRLPRPRPRPEGEPRP | 0.0139 |
| RRIRNRPPRLPRPRPRPEAWPRP | -0.0397 |
| RRIRLRPPRLPRPRPRPPTFPRP | 0.00353 |
| RRIRWRPPRLPRPRPRPEEAPRP | 0.113 |
| RRIRGRPPRLPRPRPRPFLDPRP | 0.209 |
| RRIRFRPPRLPRPRPRPNVPPRP | -0.0369 |
| RRIRCRPPRLPRPRPRPCNLPRP | -0.0646 |
| RRIRIRPPRLPRPRPRPPDIPRP | -0.198 |
| RRIRDRPPRLPRPRPRPRCDPRP | -0.0149 |
| RRIRYRPPRLPRPRPRPLDIPRP | -1.69 |
| RRIRPRPPRLPRPRPRPAWFPRP | 0.117 |
| RRIRGRPPRLPRPRPRPKTHPRP | 0.947 |
| RRIRPRPPRLPRPRPRPIWGPRP | 0.0815 |

| Sequence | shrunken log2 fold change |
| --- | --- |
| RRIRYRPPRLPRPRPRPTLYPRP | -0.828 |
| RRIRWRPPRLPRPRPRPDQNPRP | -0.0342 |
| RRIRRRPPRLPRPRPRPHFDPRP | 0.216 |
| RRIRSRPPRLPRPRPRPNFYPRP | -0.252 |
| RRIRARPPRLPRPRPRPYYIPRP | -0.409 |
| RRIRERPPRLPRPRPRPVAEPRP | 0.0949 |
| RRIRMRPPRLPRPRPRPGNIPRP | -0.115 |
| RRIRPRPPRLPRPRPRPTGEPRP | 0.396 |
| RRIRQRPPRLPRPRPRPIHGPRP | -0.0264 |
| RRIRKRPPRLPRPRPRPPMTPRP | -0.00191 |
| RRIRGRPPRLPRPRPRPHGNPRP | 0.365 |
| RRIRIRPPRLPRPRPRPEPAPRP | 0.326 |
| RRIRCRPPRLPRPRPRPVFVPRP | -0.136 |
| RRIRYRPPRLPRPRPRPKPFPRP | 0.0506 |
| RRIRNRPPRLPRPRPRPLIPPRP | -0.208 |
| RRIRVRPPRLPRPRPRPDIFPRP | -0.171 |
| RRIRFRPPRLPRPRPRPVLLPRP | -0.209 |
| RRIRCRPPRLPRPRPRPLTMPRP | -0.262 |
| RRIRCRPPRLPRPRPRPPALPRP | 0.415 |
| RRIRFRPPRLPRPRPRPVQGPRP | -0.169 |
| RRIRSRPPRLPRPRPRPKGGPRP | 0.149 |
| RRIRLRPPRLPRPRPRPSGGPRP | -0.153 |
| RRIRQRPPRLPRPRPRPRREPRP | 0.08 |
| RRIRRRPPRLPRPRPRPRICPRP | 0.414 |
| RRIRSRPPRLPRPRPRPHGSPRP | -0.0567 |

| Sequence | shrunken log2 fold change |
| --- | --- |
| RRIRLRPPRLPRPRPRPVSWPRP | 0.22 |
| RRIRARPPRLPRPRPRPPREPRP | 1.01 |
| RRIRLRPPRLPRPRPRPRPKPRP | 0.294 |
| RRIRYRPPRLPRPRPRPVFFPRP | -0.367 |
| RRIRIRPPRLPRPRPRPVSKPRP | -0.0544 |
| RRIRTRPPRLPRPRPRPLTNPRP | -0.0099 |
| RRIRIRPPRLPRPRPRPLEAPRP | -0.118 |
| RRIRVRPPRLPRPRPRPNFEPRP | 0.178 |
| RRIRDRPPRLPRPRPRPDHAPRP | -0.00822 |
| RRIRTRPPRLPRPRPRPHPVPRP | 0.1 |
| RRIRNRPPRLPRPRPRPFESPRP | 0.00843 |
| RRIRPRPPRLPRPRPRPGKTPRP | 0.294 |
| RRIRFRPPRLPRPRPRPCALPRP | -0.554 |
| RRIRKRPPRLPRPRPRPGLIPRP | 0.13 |
| RRIRGRPPRLPRPRPRPHSRPRP | 0.26 |
| RRIRDRPPRLPRPRPRPDDWPRP | 1.08 |
| RRIRLRPPRLPRPRPRPFMHPRP | -0.326 |
| RRIRIRPPRLPRPRPRPLSWPRP | -0.0609 |
| RRIRTRPPRLPRPRPRPFARPRP | 0.00253 |
| RRIRPRPPRLPRPRPRPTCNPRP | -0.142 |
| RRIRNRPPRLPRPRPRPQWAPRP | -0.188 |
| RRIRGRPPRLPRPRPRPIELPRP | -0.0084 |
| RRIRKRPPRLPRPRPRPANTPRP | -0.0533 |
| RRIRERPPRLPRPRPRPSPEPRP | 0.0512 |
| RRIRRRPPRLPRPRPRPNNIPRP | -0.556 |
